The target in assay [1] is T1, FcγRIIa R (extracellular domain, C-terminal His tag) (human, UniProt P12318 34-217).
T1 construct: extracellular domain; also called FcgRIIa R type; 2aR; not shown: His tag attached to the C terminus
T1 sequence (looked up): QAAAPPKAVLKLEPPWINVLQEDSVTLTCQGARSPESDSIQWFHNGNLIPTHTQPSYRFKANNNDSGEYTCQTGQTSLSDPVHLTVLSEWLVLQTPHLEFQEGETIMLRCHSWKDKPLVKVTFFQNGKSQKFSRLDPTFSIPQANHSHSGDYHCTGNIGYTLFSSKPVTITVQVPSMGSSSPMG
The assay can be described thus: SPR (Biacore), antibody captured on antigen-peptide chip, FcγR as analyte; relative binding amount. As for the experimental part: (§1) The heterodimerized antibodies He Abs in which one of the H chains was introduced with an alteration were assayed for their binding activities to each activating FcγR and inhibitory FcγR according to the method described in Example 4. […] The activating FcγRs in FIGS. 26, 27, 28, and 29 are FcγRIa, FcγRIIa (R), FcγRIIa (H), and FcγRIIIa, respectively.
(§2) Analysis of interaction between objective antibody and the FcγR was carried out using Biacore T100 (GE Healthcare). HBS-EP+ (GE Healthcare) was used as the running buffer, and the measurement temperature was set to 25° C. Chips produced by immobilizing the antigen peptide by the amine coupling method to a Series S Sencor Chip CM5 (GE Healthcare), or alternatively, chips produced by allowing preliminarily biotinylated antigen peptides to interact with and immobilize onto a Series S Sensor Chip SA (certified) (GE Healthcare) were used. Antibodies of interest were captured onto an antigen peptide-immobilized chip, and allowed to interact to each FcγR diluted with running buffer. To regenerate and repeatedly use the chip, the antibodies captured on the chip were washed off by reacting 10 mM glycine-HCl, pH 1.5.

For assay [2], the target named is T2, FcγRIIb (extracellular domain, C-terminal His tag) (human, UniProt P31994 43-217).
T2 construct: extracellular domain; also called FcgRIIb; 2b; not shown: His tag attached to the C terminus
T2 sequence (looked up): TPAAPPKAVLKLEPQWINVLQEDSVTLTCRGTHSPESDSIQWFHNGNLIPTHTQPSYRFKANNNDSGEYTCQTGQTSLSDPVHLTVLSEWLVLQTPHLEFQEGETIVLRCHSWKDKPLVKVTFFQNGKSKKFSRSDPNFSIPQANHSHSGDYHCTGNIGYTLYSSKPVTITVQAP
The description is as above. As for the experimental part:
as §1, §2

Assay [3] has as its target T1, FcγRIIa R (extracellular domain, …). Kind of assay: ratio of He/Con_2aR to He/Con_2b (FcγRIIb); SPR relative binding. The protocol: as §1, §2
In assay [4] the target is T3, FcγRIIa H (human, UniProt P12318 34-217).
T3 construct: extracellular domain; also called FcgRIIa H type; 2aH
T3 sequence (looked up): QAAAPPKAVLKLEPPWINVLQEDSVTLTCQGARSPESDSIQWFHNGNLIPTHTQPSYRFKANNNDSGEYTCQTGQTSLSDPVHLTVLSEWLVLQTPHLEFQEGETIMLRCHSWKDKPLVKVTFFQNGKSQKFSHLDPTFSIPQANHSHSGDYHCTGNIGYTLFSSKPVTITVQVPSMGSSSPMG
Kind of assay: ratio of He/Con_2aH to He/Con_2b (relative SPR binding to FcγRIIa H over that of the same antibody to FcγRIIb).

Assay [5] has as its target T3, FcγRIIa H. The assay can be described thus: SPR (Biacore), antibody captured on antigen-peptide chip, FcγR as analyte; binding relative to GpH7-A5/GpH7-B3/GpL16-k0 = 100.
The next assay deals with T4, FcγRIIb (human, UniProt P31994 43-217).
T4 construct: extracellular domain; also called FcgRIIb; 2b
T4 sequence (looked up): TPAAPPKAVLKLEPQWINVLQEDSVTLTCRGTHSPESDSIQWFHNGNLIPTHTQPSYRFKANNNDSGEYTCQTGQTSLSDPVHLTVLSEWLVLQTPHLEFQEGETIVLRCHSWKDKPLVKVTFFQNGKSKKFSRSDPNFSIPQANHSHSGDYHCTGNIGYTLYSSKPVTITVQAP
The description is as above.

B1: GpH7-A5/GpH7-B3 variant S239_12R/GpL16-k0 (antibody, human IgG1, kappa)
heavy 1: not shown
heavy 2: not shown
light: DIVMTQSPLSLPVTPGEPASISCQASESLVHSNRNTYLHWYLQKPGQSPQLLIYKVSNRFSGVPDRFSGSGSGTDFTLKISRVEAEDVGVYYCSQNTHVPPTFGQGTKVEIERTVAAPSVFIFPPSDEQLKSGTASVVCLLNNFYPREAKVQWKVDNALQSGNSQESVTEQDSKDSTYSLSSTLTLSKADYEKHKVYACEVTHQGLSSPVTKSFNRGEC
notes: Heterodimerized anti-glypican-3 IgG1; alteration in only one H chain (GpH7-B3 side); also called He Ab
As to B1, the He/Con_2aR in assay [1] was 53.9 % of control (GpH7-A5/GpH7-B3/GpL16-k0 = 100). The He/Con_2b in assay [2] was 39.1 % of control (GpH7-A5/GpH7-B3/GpL16-k0 = 100). Further, the “He_2aR/2b (IIaR/IIb)” value in assay [3] was determined as 1.38.

B2: GpH7-A5/GpH7-B3 variant D265_04F/GpL16-k0 (antibody, human IgG1, kappa)
heavy 1: not shown
heavy 2: not shown
light: DIVMTQSPLSLPVTPGEPASISCQASESLVHSNRNTYLHWYLQKPGQSPQLLIYKVSNRFSGVPDRFSGSGSGTDFTLKISRVEAEDVGVYYCSQNTHVPPTFGQGTKVEIERTVAAPSVFIFPPSDEQLKSGTASVVCLLNNFYPREAKVQWKVDNALQSGNSQESVTEQDSKDSTYSLSSTLTLSKADYEKHKVYACEVTHQGLSSPVTKSFNRGEC
notes: Heterodimerized anti-glypican-3 IgG1; substitution in only one H chain (the GpH7-B3 chain); also called He Ab
For the molecule B2, the “He_2aH/2b (IIaH/IIb)” value in the assay with FcγRIIa H [4] is 1.28. Besides, in the assay with FcγRIIa H [5], the He/Con_2aH was 4.1 % of HeCon Ab. In addition, the He/Con_2b in the assay with FcγRIIb was 3.2 % of HeCon Ab.

B3: GpH7-A5/GpH7-B3 variant D265_13S/GpL16-k0 (antibody, human IgG1, kappa)
heavy 1: not shown
heavy 2: not shown
light: DIVMTQSPLSLPVTPGEPASISCQASESLVHSNRNTYLHWYLQKPGQSPQLLIYKVSNRFSGVPDRFSGSGSGTDFTLKISRVEAEDVGVYYCSQNTHVPPTFGQGTKVEIERTVAAPSVFIFPPSDEQLKSGTASVVCLLNNFYPREAKVQWKVDNALQSGNSQESVTEQDSKDSTYSLSSTLTLSKADYEKHKVYACEVTHQGLSSPVTKSFNRGEC
notes: as for B2
Take B3: the “He_2aH/2b (IIaH/IIb)” value in the assay with FcγRIIa H [4] came to 1.75. Also, the He/Con_2aH with FcγRIIa H [5] was 19.8 % of HeCon Ab. For the same molecule, the He/Con_2b in the assay with FcγRIIb is 11.3 % of HeCon Ab.

B4: GpH7-A5/GpH7-B3 variant D265_11K/GpL16-k0 (antibody, human IgG1, kappa)
heavy 1: not shown
heavy 2: not shown
light: DIVMTQSPLSLPVTPGEPASISCQASESLVHSNRNTYLHWYLQKPGQSPQLLIYKVSNRFSGVPDRFSGSGSGTDFTLKISRVEAEDVGVYYCSQNTHVPPTFGQGTKVEIERTVAAPSVFIFPPSDEQLKSGTASVVCLLNNFYPREAKVQWKVDNALQSGNSQESVTEQDSKDSTYSLSSTLTLSKADYEKHKVYACEVTHQGLSSPVTKSFNRGEC
notes: as for B2
For B4, the “He_2aH/2b (IIaH/IIb)” value with FcγRIIa H [4] is 1.87. Moreover, in the assay with FcγRIIa H [5], the He/Con_2aH is 27.8 % of HeCon Ab. Further, the He/Con_2b with FcγRIIb was 14.9 % of HeCon Ab.

B5: GpH7-A5/GpH7-B3 variant D265_06M/GpL16-k0 (antibody, human IgG1, kappa)
heavy 1: not shown
heavy 2: not shown
light: DIVMTQSPLSLPVTPGEPASISCQASESLVHSNRNTYLHWYLQKPGQSPQLLIYKVSNRFSGVPDRFSGSGSGTDFTLKISRVEAEDVGVYYCSQNTHVPPTFGQGTKVEIERTVAAPSVFIFPPSDEQLKSGTASVVCLLNNFYPREAKVQWKVDNALQSGNSQESVTEQDSKDSTYSLSSTLTLSKADYEKHKVYACEVTHQGLSSPVTKSFNRGEC
notes: as for B2
Turning to B5, the “He_2aH/2b (IIaH/IIb)” value with FcγRIIa H [4] was determined as 1.35. The He/Con_2aH with FcγRIIa H [5] was 13.5 % of HeCon Ab. The He/Con_2b in the assay with FcγRIIb was 10 % of HeCon Ab.

B6: GpH7-A5/GpH7-B3 variant D265_18N/GpL16-k0 (antibody, human IgG1, kappa)
heavy 1: not shown
heavy 2: not shown
light: DIVMTQSPLSLPVTPGEPASISCQASESLVHSNRNTYLHWYLQKPGQSPQLLIYKVSNRFSGVPDRFSGSGSGTDFTLKISRVEAEDVGVYYCSQNTHVPPTFGQGTKVEIERTVAAPSVFIFPPSDEQLKSGTASVVCLLNNFYPREAKVQWKVDNALQSGNSQESVTEQDSKDSTYSLSSTLTLSKADYEKHKVYACEVTHQGLSSPVTKSFNRGEC
notes: as for B2
In the case of B6, the “He_2aH/2b (IIaH/IIb)” value in the assay with FcγRIIa H [4] worked out at 2.01. Further, in the assay with FcγRIIa H [5], the He/Con_2aH is 12.4 % of HeCon Ab. Further, in the assay with FcγRIIb, the He/Con_2b is 6.1 % of HeCon Ab.

(Values after US20180155451A1 (published 2018).)
